Data from paper PMC3048900.

Columns and labels:
Asp19 = Asp19 (UniProt position 362, WTGMIDGWYGY); assay: NMR; conditions: DPC micelle-bound helical hairpin
Glu11 = Glu11 (UniProt position 354, IAGFIEGGWTG); assay: NMR; conditions: DPC micelle-bound helical hairpin

Substance: Hemagglutinin HA2 fusion peptide HAfp23 (Influenza A virus (serotype H1; strain not stated))
- pKa (Asp19): 4.35±0.02
- pKa (Glu11): 5.31±0.01
